Source: patent US20100166808A1, “Method of Facilitating Intracellular Uptake or Transcellular Transport of Cargo Using Nanocarriers Containing Optimal Surface Densities of Integrin-Specific Ligands” (priority 2008, published 2010)

What was measured:
Test in all cases: Selectivity for human integrin receptors: phage binding to plate-coated purified integrin
Conditions in all cases: FIG. 1; purified integrin coated at 1 μg/mL; phage-displayed ligand, detection at 450 nm
[1] = target: T1, human α5β1 integrin receptor (Homo sapiens, UniProt P05556+P08648)
T1 construct: purchased Chemicon, Temecula, Calif
Method: (§1) Nunc MaxiSorp™ 96-well plates are coated with 200 μL of purified human α3β1, α5β1, and αvβ5 integrins (Chemicon, Temecula, Calif.) at 1 μg/mL in Tween 20™/PBS buffer, pH 7.5 (4° C.). After blocking for two hours with 5% (w/v) BSA (bovine serum albumin) in PBS, pH 7.5, phage samples are incubated with integrins in PBS, pH 7.5, supplemented with 2.5% (w/v) non-fat dry milk. After one hour of incubation, unbound phages are removed and the wells are washed five times with Ca^2+- and Mg^2+-containing PBS, pH 7.5.
(§2) Bound phages are quantified spectrophotometrically at λ=450 nm using monoclonal mouse T7 tail fiber antibody (1:5,000) followed by goat anti-mouse IgG horseradish peroxidase:conjugate (1:5,000) and TMB (3,3′,5,5′-tetramethyl-benzidine) as substrate.

α3β1 integrin receptor = target: T2, α3β1 integrin receptor (Homo sapiens, UniProt P05556+P26006)
T2 construct: purchased Chemicon, Temecula, Calif
Method: as §1, §2

αvβ3 integrin receptor = test system: αvβ3 integrin receptor

T1 sequence (P08648 42-894 limits assumed): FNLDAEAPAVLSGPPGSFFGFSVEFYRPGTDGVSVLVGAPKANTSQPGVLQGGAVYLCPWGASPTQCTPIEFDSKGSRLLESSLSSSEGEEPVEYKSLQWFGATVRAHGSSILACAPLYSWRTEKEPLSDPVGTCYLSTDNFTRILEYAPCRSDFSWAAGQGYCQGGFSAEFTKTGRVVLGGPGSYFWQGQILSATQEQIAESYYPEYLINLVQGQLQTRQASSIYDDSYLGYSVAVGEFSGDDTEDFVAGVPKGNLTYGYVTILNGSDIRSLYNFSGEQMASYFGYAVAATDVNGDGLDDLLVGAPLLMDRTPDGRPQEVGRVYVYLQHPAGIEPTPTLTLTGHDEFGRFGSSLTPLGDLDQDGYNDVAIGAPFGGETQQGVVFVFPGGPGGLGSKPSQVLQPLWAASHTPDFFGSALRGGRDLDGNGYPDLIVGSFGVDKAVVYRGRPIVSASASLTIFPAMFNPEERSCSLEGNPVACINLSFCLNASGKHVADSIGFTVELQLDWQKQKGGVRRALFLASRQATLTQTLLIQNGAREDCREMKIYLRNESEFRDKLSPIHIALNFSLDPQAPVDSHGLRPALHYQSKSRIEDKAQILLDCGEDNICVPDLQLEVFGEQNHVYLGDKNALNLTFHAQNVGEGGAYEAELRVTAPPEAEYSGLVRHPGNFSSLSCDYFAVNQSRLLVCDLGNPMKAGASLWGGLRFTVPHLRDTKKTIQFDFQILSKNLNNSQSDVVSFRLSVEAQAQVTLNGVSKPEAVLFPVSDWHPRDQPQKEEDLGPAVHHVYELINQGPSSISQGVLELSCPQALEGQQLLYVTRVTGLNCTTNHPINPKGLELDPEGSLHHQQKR
T1 sequence (P08648 895-1049 partner limits assumed): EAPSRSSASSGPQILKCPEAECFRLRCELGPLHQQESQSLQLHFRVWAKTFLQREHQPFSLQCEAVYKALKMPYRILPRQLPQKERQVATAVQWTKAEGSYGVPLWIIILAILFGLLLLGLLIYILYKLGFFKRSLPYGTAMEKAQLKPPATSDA
T1 sequence (P05556 21-798): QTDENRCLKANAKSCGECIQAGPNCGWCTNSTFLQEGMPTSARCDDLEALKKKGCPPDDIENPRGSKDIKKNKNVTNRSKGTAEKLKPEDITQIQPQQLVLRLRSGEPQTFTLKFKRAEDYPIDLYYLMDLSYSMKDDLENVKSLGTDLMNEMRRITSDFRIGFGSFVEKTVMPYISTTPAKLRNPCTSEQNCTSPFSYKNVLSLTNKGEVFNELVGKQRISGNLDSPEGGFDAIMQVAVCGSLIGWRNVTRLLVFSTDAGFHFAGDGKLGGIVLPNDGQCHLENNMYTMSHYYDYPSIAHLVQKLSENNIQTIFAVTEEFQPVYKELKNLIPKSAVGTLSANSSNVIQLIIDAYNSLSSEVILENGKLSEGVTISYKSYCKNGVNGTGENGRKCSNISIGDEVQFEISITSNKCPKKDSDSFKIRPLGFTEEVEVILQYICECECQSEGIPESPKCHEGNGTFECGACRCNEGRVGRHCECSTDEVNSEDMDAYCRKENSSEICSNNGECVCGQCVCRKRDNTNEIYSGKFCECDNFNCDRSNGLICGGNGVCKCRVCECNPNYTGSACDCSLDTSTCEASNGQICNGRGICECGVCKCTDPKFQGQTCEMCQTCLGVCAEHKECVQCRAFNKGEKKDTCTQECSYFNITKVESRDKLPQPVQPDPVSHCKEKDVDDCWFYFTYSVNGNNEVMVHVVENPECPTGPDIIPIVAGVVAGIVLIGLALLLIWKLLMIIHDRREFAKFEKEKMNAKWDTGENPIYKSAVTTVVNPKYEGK
T2 sequence (P26006 33-872 limits assumed): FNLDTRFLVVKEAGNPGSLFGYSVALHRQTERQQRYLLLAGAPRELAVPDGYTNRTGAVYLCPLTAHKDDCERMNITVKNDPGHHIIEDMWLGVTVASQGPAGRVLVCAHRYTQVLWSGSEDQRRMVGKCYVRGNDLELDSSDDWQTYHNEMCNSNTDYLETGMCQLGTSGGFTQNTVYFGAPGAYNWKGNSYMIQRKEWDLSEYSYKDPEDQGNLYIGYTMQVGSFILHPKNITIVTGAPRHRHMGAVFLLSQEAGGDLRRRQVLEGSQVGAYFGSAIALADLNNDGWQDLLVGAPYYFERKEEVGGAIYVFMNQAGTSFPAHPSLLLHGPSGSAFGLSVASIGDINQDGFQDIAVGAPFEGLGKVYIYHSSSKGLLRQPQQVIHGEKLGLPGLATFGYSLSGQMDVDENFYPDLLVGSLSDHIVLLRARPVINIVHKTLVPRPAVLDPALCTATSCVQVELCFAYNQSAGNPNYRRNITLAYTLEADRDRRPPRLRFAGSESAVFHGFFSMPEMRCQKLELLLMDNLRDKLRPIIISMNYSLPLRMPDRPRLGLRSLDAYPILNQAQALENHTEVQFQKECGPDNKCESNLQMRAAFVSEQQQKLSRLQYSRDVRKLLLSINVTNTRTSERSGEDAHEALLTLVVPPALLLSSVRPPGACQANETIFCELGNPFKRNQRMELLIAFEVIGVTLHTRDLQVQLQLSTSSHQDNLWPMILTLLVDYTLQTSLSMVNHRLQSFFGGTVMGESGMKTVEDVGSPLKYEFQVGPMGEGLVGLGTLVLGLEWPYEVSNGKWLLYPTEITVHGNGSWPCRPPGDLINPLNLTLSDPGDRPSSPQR
T2 sequence (P26006 873-1051 partner limits assumed): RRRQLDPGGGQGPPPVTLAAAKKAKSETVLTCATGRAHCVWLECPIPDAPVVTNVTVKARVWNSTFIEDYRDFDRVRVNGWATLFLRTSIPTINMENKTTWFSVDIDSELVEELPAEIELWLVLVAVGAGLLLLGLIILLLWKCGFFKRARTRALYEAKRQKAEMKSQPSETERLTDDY
T2 sequence (P05556 21-798): as the sequence (P05556 21-798) above

RYRGDLGRR [α5β1 integrin-specific ligand peptide]
binding to surface-immobilized human α5β1 integrin receptor [1]: binds most effectively
affinity for α3β1 integrin receptor (α3β1 integrin receptor): displays affinity
affinity for αvβ3 integrin receptor (αvβ3 integrin receptor): displays affinity
